Substrate in the data set: O=[P@]1(S)OC[C@H]2OC3[C@H](F)[C@@H]2O[P@](=O)(S)OC[C@H]2O[C@H]([C@H](F)[C@@H]2O1)n1cnc2c(ncnc21)NC/C=C/CNc1ncnc2c1ncn23
As to the kind of experiment: Uptake in HEK293 cells overexpressing OATP1B1. The conditions noted are these: other: Simcyp input parameter, Table 3; 37.0 °C. It is filed as in vitro ADME, human. The protocol: TransportoCells™ (Corning, N.Y., USA) expressing OATP2B1, NTCP, and HEK293-FT cells stably transfected with the vector containing OATP1B1 cDNA or OATP1B3 cDNA or empty vector were grown in a Dulbecoo's modified Eagle's medium fortified with 10% fetal calf serum and 2 mmol/L sodium butyrate (for NTCP only) in a humidified incubator at 37° C. and 5% CO2. Cells were harvested at 90% confluence and then seeded in poly-D-lysine-coated 24-well 24 h prior to transporter assay. Cells were washed twice and pre-incubated with 200 μL of pre-warmed Krebs-Henseleit buffer. After pre-incubation, cells were incubated with 3 or 10 μmol L-1 of Compound 1 in presence or absence of 100 μmol L-1 of inhibitors (Rifamycin SV for OATP2B1, Troglitazone for NTCP, Rifamycin for OATP1B1 and OATP1B3). The transport reaction was terminated by aspirating the buffer from the wells at designated time. After washing three times with 200 μL of ice-cold Krebs-Henseleit buffer, the cells were lysed and the resulting cellular lysates were analyzed by LC-MS/MS.
Concentration-dependent uptake of Compound 1 via OATP1B1 and OATP1B3 were conducted with a concentration range of 0.25-100 μmol L-1 under linear uptake. All experiments were run in triplicates.

B1: OATP1B1 (Homo sapiens) (protein)
chain: MDQNQHLNKTAEAQPSENKKTRYCNGLKMFLAALSLSFIAKTLGAIIMKSSIIHIERRFEISSSLVGFIDGSFEIGNLLVIVFVSYFGSKLHRPKLIGIGCFIMGIGGVLTALPHFFMGYYRYSKETNINSSENSTSTLSTCLINQILSLNRASPEIVGKGCLKESGSYMWIYVFMGNMLRGIGETPIVPLGLSYIDDFAKEGHSSLYLGILNAIAMIGPIIGFTLGSLFSKMYVDIGYVDLSTIRITPTDSRWVGAWWLNFLVSGLFSIISSIPFFFLPQTPNKPQKERKASLSLHVLETNDEKDQTANLTNQGKNITKNVTGFFQSFKSILTNPLYVMFVLLTLLQVSSYIGAFTYVFKYVEQQYGQPSSKANILLGVITIPIFASGMFLGGYIIKKFKLNTVGIAKFSCFTAVMSLSFYLLYFFILCENKSVAGLTMTYDGNNPVTSHRDVPLSYCNSDCNCDESQWEPVCGNNGITYISPCLAGCKSSSGNKKPIVFYNCSCLEVTGLQNRNYSAHLGECPRDDACTRKFYFFVAIQVLNLFFSALGGTSHVMLIVKIVQPELKSLALGFHSMVIRALGGILAPIYFGALIDTTCIKWSTNNCGTRGSCRTYNSTSFSRVYLGLSSMLRVSSLVLYIILIYAMKKKYQEKDINASENGSVMDEANLESLNKNKHFVPSAGADSETHC
notes: expressed in transfected cells; host or cells: HEK293-FT
With B1, the Km came out at 2.200 µM.

(Values after patent US12564600B2, “System for enhancing therapeutic compliance of the anti-cancer compound E7766” (Eisai R&D Management Co., Ltd., priority 2019, dated 2026).)
